Measurements taken from patent publication US20250262210A1 (TRUSTEES OF COLUMBIA UNIVERSITY IN THE CITY OF NEW YORK, published 2025).

Experiments:
Assay in all cases: IP/MS, LZTR1 wild type-FLAG, U87
[1] = target: T1, ABR (human, UniProt Q12979 1-859, limits assumed)
T1 sequence (looked up): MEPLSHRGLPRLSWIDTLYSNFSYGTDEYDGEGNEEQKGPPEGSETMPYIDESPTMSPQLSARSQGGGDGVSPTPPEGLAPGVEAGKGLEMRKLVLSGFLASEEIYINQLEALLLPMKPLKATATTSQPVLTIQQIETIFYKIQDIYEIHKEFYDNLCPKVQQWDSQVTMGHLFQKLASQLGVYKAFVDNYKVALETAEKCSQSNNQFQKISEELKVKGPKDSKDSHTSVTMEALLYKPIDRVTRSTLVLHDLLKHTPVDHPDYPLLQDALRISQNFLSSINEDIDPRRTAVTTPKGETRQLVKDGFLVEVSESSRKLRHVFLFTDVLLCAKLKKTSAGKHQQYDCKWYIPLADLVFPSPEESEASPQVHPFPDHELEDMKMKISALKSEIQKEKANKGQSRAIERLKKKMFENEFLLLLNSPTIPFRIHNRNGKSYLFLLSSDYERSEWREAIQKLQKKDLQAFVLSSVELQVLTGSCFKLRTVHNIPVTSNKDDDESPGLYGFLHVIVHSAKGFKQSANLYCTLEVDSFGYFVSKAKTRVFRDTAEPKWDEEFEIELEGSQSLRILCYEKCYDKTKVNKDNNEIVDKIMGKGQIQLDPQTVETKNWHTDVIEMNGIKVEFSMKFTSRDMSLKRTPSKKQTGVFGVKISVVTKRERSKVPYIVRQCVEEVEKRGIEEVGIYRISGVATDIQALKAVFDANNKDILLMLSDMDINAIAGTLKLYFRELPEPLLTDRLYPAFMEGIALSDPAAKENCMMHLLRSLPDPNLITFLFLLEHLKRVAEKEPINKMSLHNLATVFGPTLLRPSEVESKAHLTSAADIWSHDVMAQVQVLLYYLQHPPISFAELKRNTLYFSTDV
Summary of the method: (§1)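 Extracted peptides in 3% acetonitrile/0.1% formic acid ran on a 50 cm C18 column into an Orbitrap Fusion, with MaxQuant identification and spectral counting.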

[2] = target: TUBGCP2 (human, UniProt Q9BSJ2 1-902, limits assumed)
TUBGCP2, sequence (Q9BSJ2 whole entry): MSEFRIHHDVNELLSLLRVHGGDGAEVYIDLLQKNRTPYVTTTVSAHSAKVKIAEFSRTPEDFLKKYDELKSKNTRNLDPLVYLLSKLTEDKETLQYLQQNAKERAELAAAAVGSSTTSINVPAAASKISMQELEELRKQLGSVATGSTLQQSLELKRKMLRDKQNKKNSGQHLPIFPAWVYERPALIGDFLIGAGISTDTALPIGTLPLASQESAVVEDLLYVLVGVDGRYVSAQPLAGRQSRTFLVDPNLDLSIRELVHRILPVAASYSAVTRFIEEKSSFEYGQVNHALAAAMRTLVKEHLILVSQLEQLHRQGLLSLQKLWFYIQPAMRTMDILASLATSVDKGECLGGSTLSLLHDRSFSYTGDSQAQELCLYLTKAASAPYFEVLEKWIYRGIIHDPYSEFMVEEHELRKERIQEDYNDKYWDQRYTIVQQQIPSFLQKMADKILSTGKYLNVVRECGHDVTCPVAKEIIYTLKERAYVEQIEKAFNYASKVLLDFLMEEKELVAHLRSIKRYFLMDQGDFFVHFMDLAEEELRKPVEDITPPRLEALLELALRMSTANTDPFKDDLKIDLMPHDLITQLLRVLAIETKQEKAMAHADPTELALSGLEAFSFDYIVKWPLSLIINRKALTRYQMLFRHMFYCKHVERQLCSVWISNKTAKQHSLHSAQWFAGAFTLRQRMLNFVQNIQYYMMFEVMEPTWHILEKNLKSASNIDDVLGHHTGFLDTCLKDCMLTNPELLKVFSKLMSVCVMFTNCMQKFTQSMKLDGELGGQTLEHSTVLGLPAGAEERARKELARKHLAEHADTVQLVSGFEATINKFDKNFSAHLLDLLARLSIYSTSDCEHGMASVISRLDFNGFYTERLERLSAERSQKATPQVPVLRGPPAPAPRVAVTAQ
Summary of the method: as §1

[3] = target: ARHGEF40 (human, UniProt Q8TER5 1-1519, limits assumed)
ARHGEF40, sequence (Q8TER5 whole entry): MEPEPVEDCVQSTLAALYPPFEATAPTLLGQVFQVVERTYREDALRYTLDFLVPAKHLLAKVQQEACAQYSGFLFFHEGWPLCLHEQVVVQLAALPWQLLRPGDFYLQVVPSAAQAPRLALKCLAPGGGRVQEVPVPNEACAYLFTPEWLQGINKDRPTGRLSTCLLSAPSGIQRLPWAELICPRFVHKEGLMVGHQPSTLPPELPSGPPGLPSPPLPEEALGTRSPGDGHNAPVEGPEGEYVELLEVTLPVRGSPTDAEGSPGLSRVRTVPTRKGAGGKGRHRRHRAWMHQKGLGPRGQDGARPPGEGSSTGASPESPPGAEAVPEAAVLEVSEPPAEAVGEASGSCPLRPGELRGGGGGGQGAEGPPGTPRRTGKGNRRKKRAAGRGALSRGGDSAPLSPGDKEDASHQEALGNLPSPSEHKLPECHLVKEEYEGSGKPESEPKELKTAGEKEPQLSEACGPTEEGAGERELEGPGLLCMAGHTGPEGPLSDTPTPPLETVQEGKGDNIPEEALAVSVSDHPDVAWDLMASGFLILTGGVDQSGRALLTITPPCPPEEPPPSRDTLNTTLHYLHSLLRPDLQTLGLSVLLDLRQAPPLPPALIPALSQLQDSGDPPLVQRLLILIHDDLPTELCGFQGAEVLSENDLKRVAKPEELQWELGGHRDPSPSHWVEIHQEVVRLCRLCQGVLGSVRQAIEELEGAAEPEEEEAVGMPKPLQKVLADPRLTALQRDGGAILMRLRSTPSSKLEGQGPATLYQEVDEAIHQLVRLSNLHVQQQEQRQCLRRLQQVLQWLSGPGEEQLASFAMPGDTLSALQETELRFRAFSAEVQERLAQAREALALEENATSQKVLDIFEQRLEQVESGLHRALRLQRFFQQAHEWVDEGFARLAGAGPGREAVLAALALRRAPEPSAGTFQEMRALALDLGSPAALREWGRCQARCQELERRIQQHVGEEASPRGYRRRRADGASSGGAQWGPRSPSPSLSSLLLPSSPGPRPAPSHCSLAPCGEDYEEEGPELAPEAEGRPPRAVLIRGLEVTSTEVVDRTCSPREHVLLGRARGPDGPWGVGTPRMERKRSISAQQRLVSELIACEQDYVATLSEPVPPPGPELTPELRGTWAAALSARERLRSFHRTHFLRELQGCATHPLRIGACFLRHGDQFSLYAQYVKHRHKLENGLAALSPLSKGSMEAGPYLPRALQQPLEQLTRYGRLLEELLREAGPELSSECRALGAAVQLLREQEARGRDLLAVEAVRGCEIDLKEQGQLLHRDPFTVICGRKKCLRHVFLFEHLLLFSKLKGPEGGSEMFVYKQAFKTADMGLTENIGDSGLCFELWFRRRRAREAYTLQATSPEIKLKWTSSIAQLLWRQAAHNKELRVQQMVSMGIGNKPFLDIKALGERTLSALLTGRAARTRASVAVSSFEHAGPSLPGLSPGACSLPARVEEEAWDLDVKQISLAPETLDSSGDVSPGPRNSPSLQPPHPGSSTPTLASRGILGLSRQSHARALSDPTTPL
Summary of the method: as §1

[4] = target: TTC27 (human, UniProt Q6P3X3 1-843)
Summary of the method: as §1

[5] = target: T2, CC2D1A (human, UniProt Q6P1N0 1-951, limits assumed)
T2 sequence (looked up): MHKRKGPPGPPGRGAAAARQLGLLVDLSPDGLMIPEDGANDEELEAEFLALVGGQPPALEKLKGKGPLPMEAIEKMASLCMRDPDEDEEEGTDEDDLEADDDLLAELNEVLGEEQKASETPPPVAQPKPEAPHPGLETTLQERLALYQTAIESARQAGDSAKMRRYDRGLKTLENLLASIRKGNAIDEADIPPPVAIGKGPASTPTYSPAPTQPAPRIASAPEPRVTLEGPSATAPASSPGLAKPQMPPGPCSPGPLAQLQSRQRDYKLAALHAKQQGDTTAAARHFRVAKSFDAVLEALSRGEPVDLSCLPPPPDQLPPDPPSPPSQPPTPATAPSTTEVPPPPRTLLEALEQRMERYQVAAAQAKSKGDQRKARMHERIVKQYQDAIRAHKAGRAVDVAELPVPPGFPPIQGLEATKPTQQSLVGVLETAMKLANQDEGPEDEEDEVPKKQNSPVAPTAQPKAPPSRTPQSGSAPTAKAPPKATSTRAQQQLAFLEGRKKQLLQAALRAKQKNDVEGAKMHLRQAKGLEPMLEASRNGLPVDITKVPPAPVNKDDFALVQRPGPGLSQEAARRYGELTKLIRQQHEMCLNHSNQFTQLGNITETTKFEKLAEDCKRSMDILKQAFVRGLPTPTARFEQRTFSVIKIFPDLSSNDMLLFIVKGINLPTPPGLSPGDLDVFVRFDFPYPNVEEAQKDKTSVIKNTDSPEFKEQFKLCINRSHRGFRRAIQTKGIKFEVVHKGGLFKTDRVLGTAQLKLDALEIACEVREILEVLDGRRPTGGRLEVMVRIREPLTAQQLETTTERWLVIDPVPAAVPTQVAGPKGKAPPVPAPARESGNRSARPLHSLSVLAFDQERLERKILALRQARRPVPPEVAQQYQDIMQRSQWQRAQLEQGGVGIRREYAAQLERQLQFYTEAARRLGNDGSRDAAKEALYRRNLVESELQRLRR
Summary of the method: as §1

[6] = target: PARP14 (human, UniProt Q460N5 1-1801, limits assumed)
PARP14, sequence (Q460N5 whole entry): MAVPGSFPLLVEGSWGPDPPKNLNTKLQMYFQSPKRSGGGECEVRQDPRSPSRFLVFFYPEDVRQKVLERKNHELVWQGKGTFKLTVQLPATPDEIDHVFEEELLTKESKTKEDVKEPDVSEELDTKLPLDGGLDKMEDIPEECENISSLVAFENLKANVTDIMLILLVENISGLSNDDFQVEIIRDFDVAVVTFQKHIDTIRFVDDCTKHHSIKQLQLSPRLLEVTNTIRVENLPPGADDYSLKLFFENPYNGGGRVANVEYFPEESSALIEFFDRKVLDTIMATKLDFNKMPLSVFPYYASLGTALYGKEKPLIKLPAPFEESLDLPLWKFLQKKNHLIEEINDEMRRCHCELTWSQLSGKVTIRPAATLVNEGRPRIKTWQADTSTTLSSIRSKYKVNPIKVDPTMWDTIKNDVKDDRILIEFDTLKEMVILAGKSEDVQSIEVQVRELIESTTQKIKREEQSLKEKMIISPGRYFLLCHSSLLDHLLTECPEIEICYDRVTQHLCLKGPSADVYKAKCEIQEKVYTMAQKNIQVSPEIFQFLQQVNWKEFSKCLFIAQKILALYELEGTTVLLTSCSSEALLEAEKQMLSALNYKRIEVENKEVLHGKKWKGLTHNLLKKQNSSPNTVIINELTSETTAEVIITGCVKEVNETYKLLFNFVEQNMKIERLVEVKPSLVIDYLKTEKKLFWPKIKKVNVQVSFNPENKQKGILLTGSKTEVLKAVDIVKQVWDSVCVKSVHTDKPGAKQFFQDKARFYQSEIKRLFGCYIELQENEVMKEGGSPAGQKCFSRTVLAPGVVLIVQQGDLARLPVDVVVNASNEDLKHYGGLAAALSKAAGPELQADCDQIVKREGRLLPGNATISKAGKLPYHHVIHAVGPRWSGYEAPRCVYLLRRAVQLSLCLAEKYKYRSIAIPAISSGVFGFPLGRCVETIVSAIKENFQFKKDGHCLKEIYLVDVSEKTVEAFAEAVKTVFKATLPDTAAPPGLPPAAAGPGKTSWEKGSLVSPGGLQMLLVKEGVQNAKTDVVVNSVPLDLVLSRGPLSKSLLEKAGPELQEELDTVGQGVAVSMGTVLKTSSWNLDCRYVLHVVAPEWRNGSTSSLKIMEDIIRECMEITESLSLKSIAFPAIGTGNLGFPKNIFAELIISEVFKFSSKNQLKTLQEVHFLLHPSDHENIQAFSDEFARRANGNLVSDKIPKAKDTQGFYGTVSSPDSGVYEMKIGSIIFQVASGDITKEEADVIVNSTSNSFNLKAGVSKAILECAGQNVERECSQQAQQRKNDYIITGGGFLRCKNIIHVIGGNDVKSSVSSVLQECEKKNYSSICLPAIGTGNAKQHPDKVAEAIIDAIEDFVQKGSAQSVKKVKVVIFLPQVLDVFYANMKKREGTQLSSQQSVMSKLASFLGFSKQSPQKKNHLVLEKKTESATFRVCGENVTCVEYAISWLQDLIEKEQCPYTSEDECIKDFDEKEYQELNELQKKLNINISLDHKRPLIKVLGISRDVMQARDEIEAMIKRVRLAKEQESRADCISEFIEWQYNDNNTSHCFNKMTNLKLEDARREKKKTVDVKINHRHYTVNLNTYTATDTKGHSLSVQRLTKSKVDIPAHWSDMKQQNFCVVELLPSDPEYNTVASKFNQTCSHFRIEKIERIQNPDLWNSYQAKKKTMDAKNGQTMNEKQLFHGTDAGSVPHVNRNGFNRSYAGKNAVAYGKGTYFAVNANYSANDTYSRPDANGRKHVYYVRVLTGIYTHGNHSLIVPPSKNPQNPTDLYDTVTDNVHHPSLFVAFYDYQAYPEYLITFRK
Summary of the method: as §1

[7] = target: TTI1 (human, UniProt O43156 1-1089)
Summary of the method: as §1

[8] = target: KIF1B (human, UniProt O60333 2-1816, limits assumed)
Summary of the method: as §1

binding result [1]: binds | binding result [2]: binds | binding result [3]: binds | binding result [4]: binds | binding result [5]: binds | binding result [6]: binds | binding result [7]: binds | binding result [8]: binds
B1: LZTR1-FLAG (other, human, UniProt Q8N653 1-840, looked up)
chain: MAGPGSTGGQIGAAALAGGARSKVAPSVDFDHSCSDSVEYLTLNFGPFETVHRWRRLPPCDEFVGARRSKHTVVAYKDAIYVFGGDNGKTMLNDLLRFDVKDCSWCRAFTTGTPPAPRYHHSAVVYGSSMFVFGGYTGDIYSNSNLKNKNDLFEYKFATGQWTEWKIEGRLPVARSAHGATVYSDKLWIFAGYDGNARLNDMWTIGLQDRELTCWEEVAQSGEIPPSCCNFPVAVCRDKMFVFSGQSGAKITNNLFQFEFKDKTWTRIPTEHLLRGSPPPPQRRYGHTMVAFDRHLYVFGGAADNTLPNELHCYDVDFQTWEVVQPSSDSEVGGAEVPERACASEEVPTLTYEERVGFKKSRDVFGLDFGTTSAKQPTQPASELPSGRLFHAAAVISDAMYIFGGTVDNNIRSGEMYRFQFSCYPKCTLHEDYGRLWESRQFCDVEFVLGEKEECVQGHVAIVTARSRWLRRKITQARERLAQKLEQEAAPVPREAPGVAAGGARPPLLHVAIREAEARPFEVLMQFLYTDKIKYPRKGHVEDVLLIMDVYKLALSFQLCRLEQLCRQYIEASVDLQNVLVVCESAARLQLSQLKEHCLNFVVKESHFNQVIMMKEFERLSSPLIVEIVRRKQQPPPRTPLDQPVDIGTSLIQDMKAYLEGAGAEFCDITLLLDGHPRPAHKAILAARSSYFEAMFRSFMPEDGQVNISIGEMVPSRQAFESMLRYIYYGEVNMPPEDSLYLFAAPYYYGFYNNRLQAYCKQNLEMNVTVQNVLQILEAADKTQALDMKRHCLHIIVHQFTKVSKLPTLRSLSQQLLLDIIDSLASHISDKQCAELGADI
notes: Expressed in HEK 293T, HeLa or U87 cells; used as cell lysate; also called LZTR1 wild type-FLAG; LZTR1 WT; not shown: FLAG tag at the C-terminus
